Laboratory results reported in patent publication US20240279345A1, “ALPHA 5 BETA 1 INTEGRIN BINDING AGENTS AND USES THEREOF” (PASITHEA THERAPEUTICS CORP., priority 2021, published 2024).

Tests used:
[1] = target: rh-α5β1 protein bound to human FN protein (Homo sapiens, UniProt P05556+P08648); assay: SPR dissociation of rh-α5β1 bound to FN; format: biochemical; settings: 1 μM antibody injected for 250s after 400 nM rh-α5β1; 25° C.
Experimental: Surface Plasmon Resonance (SPR) and a cell-based assay were used to test the effect of the antibodies on the dissociation of rh-α5β1 protein bound to human FN protein. The antibodies tested are representatives of the two groups of antibodies identified in Example 6 that define two different epitope binding groups and have distinct ligand blocking properties. […] In addition, the small molecule antagonist cyclic RGD (cRGD; Creative-Peptides, Shirley, New York, 11967, cat. no. CP22175) was tested as a comparator that inhibits α5β1 integrin binding to FN by competing at the ligand binding pocket.
Description of the SPR method used: FN protein dissolved in water was manually printed onto the bare gold-coated (thickness 47 nm) PlexArray Nanocapture Sensor Chip (Plexera Bioscience, Seattle, WA) at 40% humidity. The chip was incubated in 80% humidity at 4° C. for overnight and rinsed with 10×PBST (0.1M phosphate buffer, 1.54M NaCl, pH7.4, 0.5% Tween20) for 10 minutes (min), 1×PBST (0.01M phosphate buffer pH7.4, 0.154M NaCl, 0.05% Tween20) for 10 min, and deionized water twice for 10 min. The chip was then blocked with 5% (w/v) non-fat milk in water overnight, and washed with 10×PBST for 10 min, 1×PBST for 10 min, and deionized water twice for 10 min before being dried under a stream of nitrogen prior to use. SPR measurements were performed using PlexArray HT (Plexera Bioscience, Seattle, WA), a high-throughput surface plasmon resonance imaging (SPRi) platform. Collimated light (660 nm) passes through the coupling prism, reflects off the SPR-active gold surface, and is received by the CCD camera. Buffers and samples were injected by a non-pulsatile piston pump into the 30 μL flow cell that was mounted on the coupling prim. […] SPR binding responses (a.u.) were recorded and plotted over time.

[2] = target: T1, rh-α5β1 in active conformation (binding to 12G10) (Homo sapiens, UniProt P05556+P08648); assay: 12G10 conformation assay (α5β1 integrin binding to 12G10); settings: 0.5 mM MnCl2
T1 construct: purchased Acro Biosystems IT1-H52W5
T1 sequence (P08648 42-894 limits assumed): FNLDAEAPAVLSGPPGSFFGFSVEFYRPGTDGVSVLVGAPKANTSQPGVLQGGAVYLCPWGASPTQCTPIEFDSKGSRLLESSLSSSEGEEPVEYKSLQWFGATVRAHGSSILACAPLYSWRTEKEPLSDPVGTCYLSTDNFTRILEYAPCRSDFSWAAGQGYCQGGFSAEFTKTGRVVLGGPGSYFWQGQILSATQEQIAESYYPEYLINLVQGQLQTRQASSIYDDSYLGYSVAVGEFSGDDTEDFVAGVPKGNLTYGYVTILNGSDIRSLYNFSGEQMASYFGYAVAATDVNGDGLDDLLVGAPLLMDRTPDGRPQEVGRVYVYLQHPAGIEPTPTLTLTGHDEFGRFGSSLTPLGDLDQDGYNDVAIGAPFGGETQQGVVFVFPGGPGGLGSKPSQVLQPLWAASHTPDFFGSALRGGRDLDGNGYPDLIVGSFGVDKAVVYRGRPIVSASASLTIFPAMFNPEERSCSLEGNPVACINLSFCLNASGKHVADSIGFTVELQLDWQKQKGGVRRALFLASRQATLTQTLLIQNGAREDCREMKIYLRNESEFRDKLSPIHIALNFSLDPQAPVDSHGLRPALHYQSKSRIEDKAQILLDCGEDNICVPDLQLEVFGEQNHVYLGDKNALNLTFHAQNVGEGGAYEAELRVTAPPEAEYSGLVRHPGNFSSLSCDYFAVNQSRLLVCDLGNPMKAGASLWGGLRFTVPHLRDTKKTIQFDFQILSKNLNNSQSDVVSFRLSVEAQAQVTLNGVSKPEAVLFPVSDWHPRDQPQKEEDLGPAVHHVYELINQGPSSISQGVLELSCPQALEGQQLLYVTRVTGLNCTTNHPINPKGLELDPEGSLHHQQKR
T1 sequence (P08648 895-995 limits assumed): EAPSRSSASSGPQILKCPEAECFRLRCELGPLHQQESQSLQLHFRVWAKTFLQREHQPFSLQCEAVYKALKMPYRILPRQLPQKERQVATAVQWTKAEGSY
T1 sequence (P05556 21-728 limits assumed): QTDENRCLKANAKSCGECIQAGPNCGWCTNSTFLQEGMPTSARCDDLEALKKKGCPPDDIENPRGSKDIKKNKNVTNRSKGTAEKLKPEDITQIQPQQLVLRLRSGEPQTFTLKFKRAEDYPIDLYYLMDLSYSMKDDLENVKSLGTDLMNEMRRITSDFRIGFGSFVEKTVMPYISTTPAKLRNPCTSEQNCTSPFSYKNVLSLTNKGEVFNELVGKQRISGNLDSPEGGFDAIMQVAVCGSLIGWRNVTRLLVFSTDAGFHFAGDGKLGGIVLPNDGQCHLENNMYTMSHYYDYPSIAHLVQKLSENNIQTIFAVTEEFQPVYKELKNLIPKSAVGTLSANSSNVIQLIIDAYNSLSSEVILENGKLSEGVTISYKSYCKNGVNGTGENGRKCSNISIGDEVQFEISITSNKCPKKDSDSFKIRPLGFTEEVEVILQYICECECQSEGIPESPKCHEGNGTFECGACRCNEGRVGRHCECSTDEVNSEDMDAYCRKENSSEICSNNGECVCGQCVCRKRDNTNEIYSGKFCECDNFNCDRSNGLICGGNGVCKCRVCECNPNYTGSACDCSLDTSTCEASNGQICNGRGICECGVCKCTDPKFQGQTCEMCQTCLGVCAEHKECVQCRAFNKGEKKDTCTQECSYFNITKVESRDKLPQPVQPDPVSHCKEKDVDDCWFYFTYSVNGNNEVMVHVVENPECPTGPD
Experimental: A Nunc MaxiSorp Flat-Bottom 96-well plate (Invitrogen, Waltham, MA, cat. no. 44-2404-21) was coated with 12G10 antibody at 2 μg/mL in 0.2M carbonate-bicarbonate buffer, pH9.4 (Thermo Scientific, Rockford, IL, cat. No. 28382) by incubation overnight at 4° C. Plates were then washed 3 times with Wash Buffer (1× Tris Buffered Saline containing 0.05% Tween20), then blocked with 2% BSA in 1×TBS for 2 hours at room temperature (RT). The human IgG4 chimeric versions of the antibodies were diluted in Standard Diluent (2% BSA, 1×TBS, 0.05% Tween20) containing 0.05 μg/mL rh-α5β1-6×His tagged protein (Acro Biosystems, Newark, DE, cat. no. IT1-H52W5) and 0.5 mM MnCl2 (TEKnova, Hollister, CA, cat. no. M0350) to generate a 7 point 1:5 antibody dilution series ranging from 10,000 ng/mL to 0.64 ng/mL. In addition to human IgG4 chimeric antibodies A-15B08, C-14D12 and A2-7A05, three other antibodies tested included IgG4 isotype control (human IgG4, Kappa, anti-fluorescein Ab00102-13.0, Absolute Antibody, Wilton, UK), anti-integrin alpha-5 clone SNAKA51 (MilliporeSigma, St. Louis, MO, cat. no. MABT201) known to induce integrin alpha-5 into an active conformation, and finally the 12G10 antibody itself which can directly compete with the 12G10 bound to the MaxiSorp plate. For the assays, 100 μL of the antibody dilution series, His-tagged-α5β1 mixture was added to the wells after the blocking solution was removed and wells were washed 3 times. […] Absorbance 450 nm was measured. Data points were normalized to the absorbance of the well containing no antibody for each dilution series and reported as Percent Binding. […]

rh-α5β1 protein bound to human FN protein, sequence (P08648 42-894 limits assumed): as the sequence (P08648 42-894 limits assumed) above
rh-α5β1 protein bound to human FN protein, sequence (P08648 895-995 limits assumed): as the sequence (P08648 895-995 limits assumed) above
rh-α5β1 protein bound to human FN protein, sequence (P05556 21-728 limits assumed): as the sequence (P05556 21-728 limits assumed) above

| Molecule | effect on dissociation of rh-α5β1 protein bound to FN (SPR response) [1] | effect on α5β1 integrin binding to 12G10 ([2]; dilution series 10,000 to 0.64 ng/mL) | reduction of α5β1 integrin binding to 12G10 ([2]; human IgG4 chimeric antibodies) |
| --- | --- | --- | --- |
| A2-7A05: anti-α5β1 antibody, VH SEQ ID NO:77, VL SEQ ID NO:78; tested as mouse hybridoma antibody and as human IgG4 chimera (antibody, V domains shown, A2-7A05 VH Sequence; A2-7A05 VL Sequence, tested as mouse hybridoma antibody and as human IgG4 chimera) VH: QVQLQQPGAELVKPGASVKLSCKASGYTFTIYWINWVKQRPGQGLEWIGKIYPGSISTDYNEKFKSKATLTVDTSSSTAYMQLSSLTSDDSAVYYCAITGTGGLAYWGQGTLVTVSA VL: ENVLTQSPAIMSASLGEKVTMTCRASSSVNYMYWYQQKSDASPKLWIYFTSSLAPGVPGRFSGSGSGNSYSLTISTMEGEDAATYYCQQFTTSPFTFGSGTKLEIK | partial dissociation at a slower rate | did not reduce α5β1 integrin binding to 12G10 | – |
| A-15B08: anti-α5β1 antibody, VH SEQ ID NO:25, VL SEQ ID NO:26; tested as mouse hybridoma antibody and as human IgG4 chimera (antibody, V domains shown, A-15B08 VH Sequence; A-15B08 VL Sequence, tested as mouse hybridoma antibody and as human IgG4 chimera) VH: QVQLKESGPGLVAPSQSLSITCTISGFSLTSYGVHWVRQPPGKGLEWLVVIWSDGSTTYNSTLKSRLSISKDNSKSQVFFKMNSLQTDDTAMYYCARHYDYDGDWFAYWGQGTLVTVSA VL: QIVLTQSPAIMSASLGERVTMTCTASSRVSSNSLHWYQQKPGSSPKLWIYSTSNLASGVPARFSGSGSGTSYSLTISSMEAEDAATYYCHQYLRSPPTFGGGTKLEIK | rapid dissociation of the FN-α5β1 complex | – | approximately 50% |
